Test results published in patent publication US20240317847A1 (Bayer, published 2024).
Substitutions are numbered along the chain they refer to. Names and notes keep the numbering of the source.

T1: murine IL-11 (mouse, UniProt P47873 22-199)
T1 sequence: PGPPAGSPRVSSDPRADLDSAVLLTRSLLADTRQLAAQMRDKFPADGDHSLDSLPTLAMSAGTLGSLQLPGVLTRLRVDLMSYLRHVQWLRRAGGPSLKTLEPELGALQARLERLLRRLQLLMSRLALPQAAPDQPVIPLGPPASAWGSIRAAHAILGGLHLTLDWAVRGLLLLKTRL

T2: human IL-11 (human, UniProt P20809 22-199)
T2 sequence: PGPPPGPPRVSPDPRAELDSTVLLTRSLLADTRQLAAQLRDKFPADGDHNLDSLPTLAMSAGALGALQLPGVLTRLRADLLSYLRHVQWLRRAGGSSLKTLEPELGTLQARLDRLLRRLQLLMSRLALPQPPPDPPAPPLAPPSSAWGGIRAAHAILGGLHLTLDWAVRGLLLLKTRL

B1: TPP-31313 (antibody, IgG4, V domains shown)
VH: QVQLVESGGGVVQPGRSLRLSCAASGFTFSHYDMHWVRQAPGKGLEWVAVISYEGSNKFYADSVKGRFTISRDNSKNTLYLQMNSLRAEDTAVYYCARTPGSHFDYWGQGTLVTVSS
VL: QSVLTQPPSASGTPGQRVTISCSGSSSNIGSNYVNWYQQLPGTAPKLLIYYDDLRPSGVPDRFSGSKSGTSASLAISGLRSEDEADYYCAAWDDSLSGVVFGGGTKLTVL
notes: hIgG4 SPLE, lambda; also called FB; fundamental backbone
B2: TPP-31321 (antibody, IgG4, V domains shown)
VH: B1 VH with S63F
VL: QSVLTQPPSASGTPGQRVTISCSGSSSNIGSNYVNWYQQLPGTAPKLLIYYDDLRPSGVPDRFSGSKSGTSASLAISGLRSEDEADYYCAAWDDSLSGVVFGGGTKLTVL
notes: hIgG4 SPLE, lambda; FB - 1, back mutation VH-S63F
B3: TPP-31319 (antibody, IgG4, V domains shown)
VH: B1 VH with V37L
VL: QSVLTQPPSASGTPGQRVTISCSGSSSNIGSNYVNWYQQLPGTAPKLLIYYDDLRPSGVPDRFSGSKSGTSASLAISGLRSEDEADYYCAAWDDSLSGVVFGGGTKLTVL
notes: hIgG4 SPLE, lambda; FB - 1, back mutation VH-V37L
B4: TPP-31316 (antibody, IgG4, V domains shown)
VH: B1 VH with V11L
VL: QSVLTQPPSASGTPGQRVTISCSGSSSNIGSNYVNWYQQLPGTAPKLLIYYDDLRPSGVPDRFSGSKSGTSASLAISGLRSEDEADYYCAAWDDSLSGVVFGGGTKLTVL
notes: hIgG4 SPLE, lambda; FB - 1, back mutation VH-V11L
B5: TPP-31318 (antibody, IgG4, V domains shown)
VH: B1 VH with H35N
VL: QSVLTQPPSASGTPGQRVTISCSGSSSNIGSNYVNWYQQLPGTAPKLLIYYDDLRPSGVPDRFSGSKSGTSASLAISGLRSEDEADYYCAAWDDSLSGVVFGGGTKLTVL
notes: hIgG4 SPLE, lambda; FB - 1, back mutation VH-H35N
B6: TPP-31317 (antibody, IgG4, V domains shown)
VH: B1 VH with R16G
VL: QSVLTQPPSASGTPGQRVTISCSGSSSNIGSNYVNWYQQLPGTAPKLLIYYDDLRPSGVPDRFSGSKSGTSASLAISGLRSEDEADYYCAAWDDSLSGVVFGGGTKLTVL
notes: hIgG4 SPLE, lambda; FB - 1, back mutation VH-R16G
B7: TPP-31323 (antibody, IgG4, V domains shown)
VH: B1 VH
VL: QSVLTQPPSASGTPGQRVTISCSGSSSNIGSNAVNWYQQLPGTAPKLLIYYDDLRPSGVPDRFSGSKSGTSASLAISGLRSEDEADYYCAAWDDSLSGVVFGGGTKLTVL
notes: hIgG4 SPLE, lambda; FB - 1, back mutation VL-Y33A
B8: TPP-31314 (antibody, IgG4, V domains shown)
VH: B1 VH with Q1E
VL: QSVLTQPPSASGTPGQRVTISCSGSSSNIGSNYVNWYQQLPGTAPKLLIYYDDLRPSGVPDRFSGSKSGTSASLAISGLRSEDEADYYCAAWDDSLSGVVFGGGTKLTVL
notes: hIgG4 SPLE, lambda; FB - 1, back mutation VH-Q1E
B9: TPP-31320 (antibody, IgG4, V domains shown)
VH: B1 VH with A49G
VL: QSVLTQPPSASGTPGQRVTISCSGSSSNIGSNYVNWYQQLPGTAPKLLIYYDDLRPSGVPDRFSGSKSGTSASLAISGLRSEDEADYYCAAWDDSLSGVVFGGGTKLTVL
notes: hIgG4 SPLE, lambda; FB - 1, back mutation VH-A49G
B10: TPP-31315 (antibody, IgG4, V domains shown)
VH: B1 VH with V5L
VL: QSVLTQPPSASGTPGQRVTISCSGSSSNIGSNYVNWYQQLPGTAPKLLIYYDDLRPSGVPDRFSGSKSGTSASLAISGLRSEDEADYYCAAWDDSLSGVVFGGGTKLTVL
notes: hIgG4 SPLE, lambda; FB - 1, back mutation VH-V5L
B11: TPP-31322 (antibody, IgG4, V domains shown)
VH: B1 VH
VL: QSVLTQPPSASGTPGQRVTISCSGSSSNIGNNYVNWYQQLPGTAPKLLIYYDDLRPSGVPDRFSGSKSGTSASLAISGLRSEDEADYYCAAWDDSLSGVVFGGGTKLTVL
notes: hIgG4 SPLE, lambda; FB - 1, back mutation VL-S31N
B12: TPP-19841 (antibody, V domains shown)
VH: EVQLLESGGGLVQPGGSLRLSCAASGFTFSSYGMHWVRQAPGKGLEWVSVISYDGSYKYYADSVKGRFTISRDNSKNTLYLQMNSLRAEDTAVYYCAAGVPDYWGQGTLVTVSS
VL: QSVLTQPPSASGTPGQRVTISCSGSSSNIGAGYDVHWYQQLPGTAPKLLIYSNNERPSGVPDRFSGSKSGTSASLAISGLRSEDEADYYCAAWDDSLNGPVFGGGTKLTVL
B13: TPP-19864 (antibody, V domains shown)
VH: B12 VH with Y53G
VL: QSVLTQPPSASGTPGQRVTISCTGSSSNIGAGYDVHWYQQLPGTAPKLLIYSNNERPSGVPDRFSGSKSGTSASLAISGLRSEDEADYYCAAWDDSLNGPVFGGGTKLTVL
B14: TPP-19874 (antibody, V domains shown)
VH: B12 VH with A98R
VL: B13 VL
B15: TPP-19863 (antibody, V domains shown)
VH: B12 VH with V50A
VL: B13 VL
B16: TPP-19843 (antibody, V domains shown)
VH: B12 VH
VL: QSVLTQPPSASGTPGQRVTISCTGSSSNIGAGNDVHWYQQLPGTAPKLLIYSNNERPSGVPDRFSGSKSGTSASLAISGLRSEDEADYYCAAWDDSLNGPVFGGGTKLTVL
B17: TPP-19865 (antibody, V domains shown)
VH: B12 VH with D54S
VL: B13 VL
B18: TPP-19872 (antibody, V domains shown)
VH: B12 VH with S49A
VL: B13 VL
B19: TPP-19867 (antibody, V domains shown)
VH: B12 VH with Y57S
VL: B13 VL
B20: TPP-19873 (antibody, V domains shown)
VH: B12 VH with Y57N
VL: B13 VL
B21: TPP-19850 (antibody, V domains shown)
VH: B12 VH
VL: B13 VL with N98S
B22: TPP-19847 (antibody, V domains shown)
VH: B12 VH
VL: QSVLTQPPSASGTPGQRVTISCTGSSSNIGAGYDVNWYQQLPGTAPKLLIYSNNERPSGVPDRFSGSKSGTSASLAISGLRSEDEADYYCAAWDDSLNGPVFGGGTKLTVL
B23: TPP-19868 (antibody, V domains shown)
VH: B12 VH with K58T
VL: B13 VL
B24: TPP-19849 (antibody, V domains shown)
VH: B12 VH
VL: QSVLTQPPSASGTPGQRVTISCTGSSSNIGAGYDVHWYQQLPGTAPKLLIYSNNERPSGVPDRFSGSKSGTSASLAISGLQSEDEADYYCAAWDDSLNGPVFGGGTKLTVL
B25: TPP-19861 (antibody, V domains shown)
VH: B12 VH with G33A
VL: B13 VL
B26: TPP-19845 (antibody, V domains shown)
VH: B12 VH
VL: B13 VL with H36Y
B27: TPP-19848 (antibody, V domains shown)
VH: B12 VH
VL: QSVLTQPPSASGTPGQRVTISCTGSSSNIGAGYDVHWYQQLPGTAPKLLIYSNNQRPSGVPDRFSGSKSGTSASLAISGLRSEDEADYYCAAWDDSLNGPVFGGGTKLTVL
B28: TPP-19866 (antibody, V domains shown)
VH: B12 VH with S56G
VL: B13 VL
B29: TPP-19842 (antibody, V domains shown)
VH: B12 VH
VL: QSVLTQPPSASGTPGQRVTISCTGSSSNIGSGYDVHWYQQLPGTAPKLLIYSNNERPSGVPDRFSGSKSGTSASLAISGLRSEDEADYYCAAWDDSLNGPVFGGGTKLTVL
B30: TPP-19862 (antibody, V domains shown)
VH: B12 VH with H35S
VL: B13 VL

target: T1, murine IL-11; experiment: cell-based or functional assay

Binder	IC50, RGA
B1	1.6 nM
B2	1 nM
B3	1.6 nM
B4	1.1 nM
B5	1.2 nM
B6	1.5 nM
B7	3.5 nM
B8	1.2 nM
B9	1.1 nM
B10	1.7 nM
B11	1.4 nM

target: T2, human IL-11; experiment: cell-based or functional assay

Binder	IC50, RGA
B1	5.4 nM
B2	2.8 nM
B3	2.3 nM
B4	3.2 nM
B5	3.8 nM
B6	2.9 nM
B7	7.1 nM
B8	2.4 nM
B9	2.8 nM
B10	2.9 nM
B11	1.7 nM

target: T1, murine IL-11; experiment: SPR, antibody captured, IL-11 as analyte
Protocol: (§1) Antibodies were captured via anti-mouse Fc IgGs (“Mouse antibody capture kit, Order No. BR100383, Cytiva) covalently amine coupled to a Series S CM5 sensor chip (Cytiva). The amine coupling was carried out according to the manufacturer's instructions using 1-ethyl-3-(3-dimethylaminopropyl) carbodiimide hydrochloride (EDC), N-hydroxysuccinimide (NHS) and ethanolamine HCl, pH 8.5 (“Amine Coupling Kit” BR-1000-50, Cytiva.). Human IL-11 (Invigate, e.g., lot #C121021-19), and murine IL-11 (Invigate, e.g., lot #C210819-09) were used as analytes. […] Based on that experiment an IL-11 concentration range was chosen to optimally determine kinetics and affinity of anti-IL-11 antibodies in multicycle kinetics mode. The sensor surface was regenerated with glycine pH 1.7 after each antigen injection. Obtained sensorgrams were double referenced (subtraction of reference flow cell signal and buffer injection) and were fitted to a 1:1 Langmuir binding model to derive kinetic data using the Biacore T200 Evaluation software or the Biacore Insight software.
(§2) Deviations from closest human germlines in CDR regions and FW regions and potential CMC relevant residues in CDR regions were adjusted by site directed mutagenesis following standard molecular protocols or purchased from DNA synthesis providers. The generated DNA constructs were expressed by transient transfection of mammalian cells and purified as described in Example 15. Antibodies were then tested for human IL-11 and murine IL-11 binding by SPR as described in Example 16.

Binder	Kd	binding result
B12	0.79 nM	
B13		no binding
B14	9.9 nM	
B15	0.64 nM	
B16	7.5 nM	
B17	3.6 nM	
B18	0.47 nM	
B19	3.4 nM	
B20	4 nM	
B21	1.6 nM	
B22	2.1 nM	
B23	0.72 nM	
B24	0.68 nM	
B25	28 nM	
B26	5 nM	
B27	2.4 nM	
B28	1.4 nM	
B29	0.66 nM	
B30	4.7 nM	

target: T2, human IL-11; experiment: SPR, antibody captured, IL-11 as analyte
Protocol: as §1, §2

Binder	Kd
B12	6.3 nM
B13	13 nM
B14	99 nM
B15	4.7 nM
B16	17 nM
B17	25 nM
B18	5.5 nM
B19	27 nM
B20	21 nM
B21	6.5 nM
B22	9 nM
B23	6.2 nM
B24	5.9 nM
B25	17 nM
B26	20 nM
B27	52 nM
B28	8.5 nM
B29	7.3 nM
B30	19 nM

target: T1, murine IL-11; experiment: SPR, IgG captured via anti-human Fc, IL-11 as analyte
Protocol: (§3) Antibody binding affinity to hIL-11 (Invigate, Germany, e.g., lot #C121021-19) and mIL-11 (Invigate, Germany, e.g., lot #C210819-09) was detected using Biacore 8K. Each antibody was captured on an anti-human IgG Fc antibody immobilized CM5 sensor chip (GE). hIL-11 and mIL-11 at different concentrations (0, 5, 15.82 and 50 nM) in 1×HBS-EP+ (pH 7.4) (GE healthcare) were injected over the sensor chip at a flow rate of 30 μL/min for an association phase of 120 s, followed by 200 s dissociation phase. The chip was then regenerated by 10 mM Glycine, pH 1.5 after each binding cycle.
(§4) The sensorgrams of blank surface and buffer channel were subtracted from the test sensorgrams. The experimental data was fitted by 1:1 model using Langmiur analysis. Molecular weight of 19.3 kDa was used to calculate the molar concentration of human and mouse IL-11.
(§5) 16 AB were produced as described in Example 21 and binding of purified AB to human and mouse IL-11 was analyzed using SPR as described in Example 21.

Binder	Kd
B1	0.64 nM
B2	0.67 nM
B3	0.59 nM
B4	0.62 nM
B5	0.3 nM
B6	0.58 nM
B7	1.7 nM
B8	0.59 nM
B9	0.56 nM
B10	0.65 nM
B11	0.69 nM

target: T2, human IL-11; experiment: as above
Protocol: as §3, §4, §5

Binder	Kd
B1	0.89 nM
B2	0.85 nM
B3	0.83 nM
B4	0.85 nM
B5	0.89 nM
B6	0.83 nM
B7	2.4 nM
B8	0.87 nM
B9	0.95 nM
B10	0.87 nM
B11	0.81 nM
